Results: the supplement of paper PMC12764529
± gives the half width of the 95% confidence interval.

Experiments:
[1] = folding stability dG unfold (combined trypsin and chymotrypsin); higher = more stable
Summary of the method: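 Designed mini-proteins (under 80 residues, no cysteine) in a PA-tagged cDNA display construct were digested with trypsin and chymotrypsin. Each protease was used at 11 concentrations (threefold dilutions) plus a no-protease condition, followed by sequencing. K50 was inferred by Bayesian fitting of sequencing counts, and unfolding free energy was derived against a sequence-predicted unfolded-state K50 and a shared folded-state K50, per protease or combined. Only designs with AlphaFold2 dimer inter-PAE above 15 were kept.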

[2] = folding stability dG unfold from trypsin proteolysis; higher = more stable
Procedure: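 Folding stability of de novo designed mini-proteins (<80 aa, no Cys; designed by TrROS, TrMRF, ProteinMPNN and the joint model) was measured by cDNA display proteolysis with trypsin and chymotrypsin. Each protease was used at 11 concentrations in a threefold dilution series plus a no-protease condition. K50 was inferred by Bayesian fitting of sequencing counts, and dG unfold was derived against a sequence-predicted unfolded-state K50 (Tsuboyama et al. method). Sequences shown include variable-length N-terminal GS-type padding (SAGGSAGG...) inside a display construct carrying a PA tag. Rows were kept only if the AF2 dimer inter-PAE was >15, to exclude likely homo-oligomers.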

Row | Sequence | folding stability dG unfold [1] [kcal/mol] | folding stability dG unfold [2] [kcal/mol]
1 | SGMTTSLGKSTTTTLPDGTTVKTEVKLTRPSSGTVVVTTDTTTVTPGTGTTTTTPTTTVVPVPPGVPGLLSA [r9_709_JUSTAS] | < -1 | -0.522 ± 0.051
2 | SMKIKITAKTEEEREKAKKLLEEIAKELNIEIKIEKIEVIPKPKPEKVELSEEEKKKLKELEEEGLIEEESA [r9_472_TrROS_Hall] | < -1 | 0.578 ± 0.059
3 | SDILERAAEKGVDEIHIMLQPNQIELIKRLQDRGAKIEIHFPPGVPKEYLKKLPGFKVDKVEWMPPDDMPSA [r9_671_TrROS] | < -1 | -0.928 ± 0.56
4 | SAGGSAGGMVPITDLTVDSEEFVLPTGGVATRETITRPATGLVYEKVVFTPKPGVVEQREVALLSAGGSAGG [r6_895_JUSTAS] | < -1 | -0.471 ± 0.12
5 | SAGGSAGGNPEDKERRYVRMPIKVTVPNPNGKKIKIPIYMPVGDPERMMPRAIKFARELAKKGLSAGGSAGG [r6_903_TrROS] | < -1 | -0.301 ± 0.7
6 | SAGGSAGGSAGSPPGSTTLRAETVVVELPAAEAYTPEGERVELPRVIVEETVERELEAGLSAGGSAGGSAGG [r11_907_JUSTAS] | -0.216 ± 0.31 | 0.427 ± 0.043
7 | SAGGMVTVERGPENRVITITLPPSVPEKVDELAAKLGTDYVTTEPLPEGDLVRYTIYVPGDNPALLESAGGS [r16_479_JUSTAS] | -0.948 ± 0.41 | 0.0152 ± 0.12
8 | SAGGSAGGPYMVMIRMPNNPQPIWFPPDEVKEALKEGDEKRIKFPGGGMEMTIRNVDDIEIMPPSAGGSAGG [r6_509_TrROS] | < -1 | -0.793 ± 0.58
9 | SAGGSAGGSSPIVVEEEPDRYVITIPPSQPELVEEVLEKLGLPAEDITRTLIPEGLVRYEVPGSAGGSAGGS [r12_493_JUSTAS] | < -1 | -0.419 ± 0.28
10 | SAGGSAYGKKKNDPDGNPKYEMEPQPTIEVPVTIPIFDNNNNPLLEIPIPASMPISDINDEIKDLFSAGGSA [r15_309_TrROS] | < -1 | -1.57 ± 0.7
11 | SAGGSAGGSAGGKITIVVSASSPEEAKRFVGELKALGPADIKVIVVPAPKPLPADDPRAKSAGGSAGGSAGG [r7_261_TrMRF] | < -1 | -0.177 ± 0.21
12 | SAGGSAGGSAGSVEEIESPDGTKTLVTKEPDSIKTTVTKPGGIPTLVTIDSKTGKWSVSLSAGGSAGGSAGG [r11_590_JUSTAS] | -0.714 ± 0.63 | -0.595 ± 0.24
13 | SAGGSAGGSAGGSMKVEKFTEIITTPDGKPELIVEKEKTTTPNGGTKTTVTKIIPAKLLSAGGSAGGSAGGS [r4_117_JUSTAS] | < -1 | -0.306 ± 0.38
14 | SAGGSAGGMVEHVVTVPPSQVEEVIEEAKPKPVVEVKVEKVPGRDEVVVTMKYEIPEEELLKKLSAGGSAGG [r6_273_JUSTAS] | < -1 | -0.704 ± 0.084
15 | SAGAGTVASPEEAEELVEELRAALPPEATITRDPTPEGGVRFTVRLPGEGRVLEMEFDPARDTTARRPESAG [r5_358_JUSTAS] | < -1 | -0.391 ± 0.083
16 | SAGGSAGGSMDPGQPMEFIQIYPDPDGNLEIHVSEIRIDPDGGAKVTEVEPKRIDDAEDLAKFSAGGSAGGS [r12_386_TrROS] | < -1 | -0.752 ± 0.19
17 | SAGGSAGGSAALGDESLHRPVPVVSTSPVTTTTTLTLTPPNGVTVTESVTTTTTVYGSGAASAGGSAGGSAG [r3_380_JUSTAS] | 0.172 ± 0.13 | 0.553 ± 0.025
18 | SAGGSAGGSAGSYEFDPSKSALVRVTLQPPDGVPVEIEIPVEELEEILPGDRPVLSIEVSSAGGSAGGSAGG [r17_449_JUSTAS] | -0.838 ± 0.51 | 0.0674 ± 0.14
19 | SAGGSAGGAEELAEELERALPEGEVTEVRVEVVELPEGEPEVVVTVRVKRDGKEVKELPVIRVPSAGGSAGG [r6_630_TrROS_Hall] | -0.997 ± 0.44 | -0.492 ± 0.16
20 | SAGGSAGGSAGGFVEKYPDGVIVEKDPNNDSGTVKKVTTTKDPNTNKPTSKVTVTPISKLSAGGSAGGSAGG [r7_181_JUSTAS] | < -1 | -0.844 ± 0.2
21 | SAGGSAGGSAGGMVIEIDVPPSVPASEVKEKVKAELLKKGVPKDTEIKVIVKPKNPELLSAGGSAGGSAGGS [r10_746_JUSTAS] | < -1 | -0.656 ± 0.2
22 | SAGGSGMRKFSPEEAKKKEVVITIPVVTYSPSLKFSPVTVPVTVSGPVTSDEEAKEKVEKAVKELASAGGSA [r2_244_JUSTAS] | < -1 | -1.03 ± 0.48
23 | SAGGSAGGSIEIDHDRDPGTNRYTATVEIPDPDGKGLEVEVQMNGDPEDAAKTAAKTVLEEFNSAGGSAGGS [r20_33_TrROS] | < -1 | 0.07 ± 0.27
24 | SAGGSAGGSPVTVETSSQTSTVPLPTGPTVTLVTNTTTTTRPVPLSTPRSSSTTTVTTTVTVVSSAGGSAGG [r6_224_JUSTAS] | < -1 | -0.311 ± 0.11
